Experimental data: publication PMC12557367, ““Precision on Two Wheels”–Structural Refinement of ^64Cu- and ^68Ga-Labeled Bicyclic Peptides Targeting Nectin‑4 for Improved Tumor Imaging: From Preclinical Development to First-in-Human Application” (Journal of Medicinal Chemistry, 2025)
Numbered stars: 1 amine (or outer) side, 2 acyl side, 3 side chain; on linkers, the order of the positions; unused ones are H or OH. Bridge positions count the residues as written; N and C are the ends. Square brackets hold non-standard residues; d marks the D form. * marks the point of attachment. 6‑TAMRA = CN(C)c1ccc2c(-c3cc(C(=O)*)ccc3C(=O)[O-])c3ccc(N(C)C)cc3[o+]c2c1; (R)‑NODAGA = O=C(O)CN1CCN(CC(=O)O)CCN([C@H](CCC(=O)*)C(=O)O)CC1; TATA = O=C(CC[*:1])N1CN(C(=O)CC[*:2])CN(C(=O)CC[*:3])C1; Mox = methoxinine, COCC[C@H](N[*:1])C(=O)[*:2]; 1Nal = N[C@@H](Cc1cccc2ccccc12)C(=O)O; Hyp = O=C(O)[C@@H]1C[C@@H](O)CN1; hArg = N=C(N)NCCCC[C@H](N)C(=O)O

T1: recombinant human nectin-4 (human, UniProt Q96NY8 32-349)
T1 construct: nectin-4, human, recombinant; also called complete extracellular domain of nectin-4; source: bought: R&D Systems (Catalog number 2659-N4)
T1 sequence (looked up): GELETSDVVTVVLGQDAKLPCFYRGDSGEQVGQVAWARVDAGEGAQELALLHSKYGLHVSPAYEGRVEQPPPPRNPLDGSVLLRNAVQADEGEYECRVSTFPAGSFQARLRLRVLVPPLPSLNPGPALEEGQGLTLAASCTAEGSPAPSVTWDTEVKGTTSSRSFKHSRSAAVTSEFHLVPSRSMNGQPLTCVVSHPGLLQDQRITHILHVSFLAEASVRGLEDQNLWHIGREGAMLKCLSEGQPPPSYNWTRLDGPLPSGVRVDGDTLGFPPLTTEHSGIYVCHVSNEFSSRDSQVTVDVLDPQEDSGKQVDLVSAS

T2: nectin-4 on intact HT-1376 cells (human (endogenous in HT-1376), UniProt Q96NY8 32-510)
T2 construct: also called cellular nectin-4
T2 sequence (looked up): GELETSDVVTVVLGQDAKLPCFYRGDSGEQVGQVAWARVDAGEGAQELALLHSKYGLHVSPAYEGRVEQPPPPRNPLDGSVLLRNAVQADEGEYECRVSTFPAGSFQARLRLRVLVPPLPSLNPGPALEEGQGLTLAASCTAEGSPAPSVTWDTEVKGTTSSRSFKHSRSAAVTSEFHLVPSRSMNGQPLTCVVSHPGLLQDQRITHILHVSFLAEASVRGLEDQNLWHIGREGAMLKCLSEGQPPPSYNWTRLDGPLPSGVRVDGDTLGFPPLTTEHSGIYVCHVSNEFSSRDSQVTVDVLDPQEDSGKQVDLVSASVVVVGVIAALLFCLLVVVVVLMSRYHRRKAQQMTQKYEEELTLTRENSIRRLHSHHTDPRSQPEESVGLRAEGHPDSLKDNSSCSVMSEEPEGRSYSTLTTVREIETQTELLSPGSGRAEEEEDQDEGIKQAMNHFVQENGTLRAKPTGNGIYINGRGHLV


Legend:
[1] = target: T1, recombinant human nectin-4; assay: fluorescence polarisation; fluorescence anisotropy, direct binding: 1 nM fluorescent probe, 11 to 13 concentrations of nectin-4 (e.g. 0.06-250 nM), 37 °C, 1200 s, HEPES buffer 20 mM pH 7.4, 0.01% Tween20, NaCl, 1% DMSO; Morrison equation; details: both partners purified
[2] = target: T3, recombinant N-terminal Ig-like V domain of nectin-4 (human); assay: fluorescence polarisation; fluorescence anisotropy, direct binding of probe 1a to the N-terminal Ig-like V domain of nectin-4; same procedure as for nectin-4; details: both partners purified
T3 construct: nectin-4, N-terminal Ig-like V domain, recombinant; source: bought: Acro Biosystems (NE4-H82Ea)

[3] = target: T2, nectin-4 on intact HT-1376 cells; assay: radioligand binding; cellular efflux: release of [64Cu]Cu-4 from intact HT-1376 cells over 4 h at 37 °C after 1 h incubation at 10 nM; two-phase decay; details: one partner purified
[4] = target: T2, nectin-4 on intact HT-1376 cells; assay: radioligand binding; saturation binding on intact HT-1376 cells, 10 radioligand concentrations (0.156-80 or 0.321-160 nM), 37 °C, 1 h, PBS wash; nonspecific with 1 µM 1d; apparent (covers binding and putative internalisation); details: one partner purified

T3 sequence (Q96NY8 whole entry): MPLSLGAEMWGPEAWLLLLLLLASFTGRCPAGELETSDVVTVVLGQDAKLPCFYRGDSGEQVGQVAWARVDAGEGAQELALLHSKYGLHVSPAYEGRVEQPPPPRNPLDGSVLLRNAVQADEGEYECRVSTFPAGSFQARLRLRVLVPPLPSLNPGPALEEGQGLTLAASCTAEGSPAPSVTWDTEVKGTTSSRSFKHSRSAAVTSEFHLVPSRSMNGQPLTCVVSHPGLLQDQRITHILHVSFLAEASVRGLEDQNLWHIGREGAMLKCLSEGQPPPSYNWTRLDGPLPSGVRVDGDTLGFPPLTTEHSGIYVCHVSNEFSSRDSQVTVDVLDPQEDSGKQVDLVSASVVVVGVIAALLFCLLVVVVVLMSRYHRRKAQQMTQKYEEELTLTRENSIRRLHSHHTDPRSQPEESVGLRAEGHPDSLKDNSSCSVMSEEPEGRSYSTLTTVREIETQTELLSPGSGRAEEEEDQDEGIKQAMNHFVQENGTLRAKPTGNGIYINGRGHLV

Binder	Kd [1] [nM]	Kd [2] [nM]	half-life of the fast phase of cellular release [3] [min]	Kd [4] [nM]
{6‑TAMRA}-CP[1Nal][dD]CM[hArg]DWSTP[Hyp]WC-NH2 (linker 1-5-15 via TATA) [1a]	0.94 ± 0.09	1.3	–	–
{(R)‑NODAGA}-CP[1Nal][dD]C[Mox][hArg]DWSTP[Hyp]WC-NH2 (linker 1-5-15 via TATA; also: NODAGA complexed with 64Cu) [[64Cu]Cu-4]	–	–	9.5	6.06
